These results are taken from patent US20050158807A1.

The target in the assay is Fas receptor on cultured mouse thyroid follicular cells (mouse) (UniProt P25446). Description: cell-based or functional assay.
UniProt P25446, sequence (P25446 22-327): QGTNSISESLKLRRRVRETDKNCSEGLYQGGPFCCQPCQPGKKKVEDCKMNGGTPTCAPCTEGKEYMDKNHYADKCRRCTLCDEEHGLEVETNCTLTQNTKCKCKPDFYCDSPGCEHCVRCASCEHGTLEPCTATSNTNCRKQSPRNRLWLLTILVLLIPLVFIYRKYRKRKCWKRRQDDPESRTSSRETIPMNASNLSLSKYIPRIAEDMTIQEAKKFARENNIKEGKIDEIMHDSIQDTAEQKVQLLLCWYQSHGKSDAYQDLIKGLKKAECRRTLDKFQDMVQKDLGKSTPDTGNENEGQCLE

As to “clone Jo2 anti-Fas antibody (Pharmingen)”, the percentage of proliferation increase of anti-Fas versus control cultures ([3H] thymidine), 48 h turned out to be 37%; the percentage of proliferation increase of anti-Fas versus control cultures ([3H] thymidine), 72 h stood at 49%; the percentage of proliferation increase of anti-Fas versus control cultures ([3H] thymidine), 96 h was determined as 61%.
